Laboratory results taken from patent US20210047398A1, “ASPROSIN, A FAST-INDUCED GLUCOGENIC PROTEIN HORMONE” (Baylor College of Medicine, priority 2016, published 2021).

Assays:
[1] = Body composition, plasma parameters, histology, GTT and ITT in WT mice with increased circulating asprosin; type: in vivo
Method: Animals—10-week old male WT C57/Bl6 mice were used for all in vivo studies. […] Mice were injected with 2.6 micro molar recombinant His tagged Asprosin or recombinant GFP daily for 10 days via subcutaneous injection. Mice were sacrificed and plasma and various organs were isolated 10 days after viral infusion or peptide injection. The Baylor College of Medicine Institutional Animal Care and Utilization Committee approved all experiments.
Body composition and Serum analyses—Body composition was analyzed with the ECHO-MRI system (Echo medical systems, Texas). Mouse serum was prepared from blood obtained through cardiac puncture and analyzed with the COBAS Integra 400 plus analyzer (Roche). Plasma leptin, FFA, adiponectin and triglyceride levels were measured by using a Mouse Leptin ELISA Kit (Millipore), NEFA C Test Kit (Wako), Mouse Adiponectin ELISA Kit (Millipore) and Serum/plasma triglyceride detection kit (Sigma), respectively.
Histology—Mouse inguinal adipose tissue samples were fixed in 10% formaldehyde for H&E staining. Frozen livers were used for oil-red-O staining to evaluate hepatic triglyceride content.
Blood glucose levels were measured using a glucometer (Life Scan).

[2] = tested on: mouse primary hepatocytes
Method: Cell Culture. Primary mouse hepatocytes were isolated from 8- to 12-week-old WT mice using standard methodology. […] The cells were treated with 50 nM recombinant asprosin or GFP for 10 minutes for cAMP and PKA assays and for 2 hours for the in vitro glucose production assay. Cells were pretreated with various inhibitors for 1 hour prior to treatment with asprosin, GFP, Glucagon or Epinephrine. cAMP was measured from cell lysates using the cAMP direct immunoassay kit from Cell Biolabs. PKA activity was measured from cell lysates using the PKA kinase activity kit from Enzo Lifesciences, Inc. Media glucose content was measured using the Glucose Colorimetric Assay Kit from Biovision. Results were normalized to protein content.

[3] = tested on: hepatocyte surface; assay: Asprosin-biotin conjugate binding to the hepatocyte surface; design: species or system mouse; settings: 100-fold excess
Method: Recombinant asprosin was conjugated with biotin using the Basic Biotinylation Sulfo-NHS Kit from Pierce. […] The cells were washed 3 times with PBS without lysis, followed by addition of streptavidin-HRP. The resulting absorbance was measured colorimetrically and the results were normalized to protein content.

[4] = tested on: POMC neurons; assay: Whole-cell patch clamp recordings on POMC neurons; type: cell-based, mice
Method: Electrophysiology—Whole-cell patch clamp recordings were performed on identified AgRP neurons or POMC neurons in the brain slices containing the arcuate nucleus of the hypothalamus (ARH). In particular, to identify AgRP neurons, the inventors crossed Rosa26-tdTOMATO allele onto the regular AgRP-Cre mice (Tong et al., 2008) to generate AgRP-Cre/Rosa26-tdTOMATO mice, which express TOMATO selectively in AgRP/NPY neurons. In some studies, the inventors crossed NPY-GFP mice (Pinto et al., 2004) with NPS mice to generate NPY-GFP mice with or without the NPS mutation, and GFP-labelled neurons in the arcuate nucleus were recorded. In order to record POMC neurons, the inventors crossed Rosa26-tdTOMATO allele onto the POMC-CreERT2 mice (Berglund et al., 2013) to generate POMC-CreERT2/Rosa26-tdTOMATO mice, which express TOMATO selectively in mature POMC neurons upon tamoxifen induction (0.2 mg/g, i.p. 6 weeks of age). In some studies, the inventors also crossed the AgRP-DTR allele onto POMC-GFP mice, and these mice received DT or saline injections (described above) to generate mice with or without AgRP neurons ablated.
Six to twelve-week old mice were deeply anesthetized with isoflurane and transcardially perfused with a modified ice-cold sucrose-based cutting solution (pH 7.3) containing 10 mM NaCl, 25 mM NaHCO3, 195 mM Sucrose, 5 mM Glucose, 2.5 mM KCl, 1.25 mM NaH2PO4, 2 mM Na-Pyruvate, 0.5 mM CaCl2, and 7 mM MgCl2, bubbled continuously with 95% O2 and 5% CO2 (Ren et al., 2012). The mice were then decapitated, and the entire brain was removed and immediately submerged in the cutting solution. Slices (250 μm) were cut with a Microm HM 650V vibratome (Thermo Scientific). Three brain slices containing the arcuate nucleus were obtained for each animal (Bregma −2.06 mm to −1.46 mm; Interaural 1.74 mm to 2.34 mm), and recordings were made at levels throughout this brain region. The slices were recovered for 1 h at 34° C. and then maintained at room temperature in artificial cerebrospinal fluid (aCSF, pH 7.3) containing 126 mM NaCl, 2.5 mM KCl, 2.4 mM CaCl2, 1.2 mM NaH2PO4, 1.2 mM MgCl2, 11.1 mM glucose, and 21.4 mM NaHCO3) saturated with 95% O2 and 5% CO2 before recording.
Slices were transferred to a recording chamber and allowed to equilibrate for at least 10 min before recording. The slices were superfused at 34° C. in oxygenated aCSF at a flow rate of 1.8-2 ml/min. GFP or TOMATO-labeled neurons in the ARH were visualized using epifluorescence and IR-DIC imaging on an upright microscope (Eclipse FN-1, Nikon) equipped with a moveable stage (MP-285, Sutter Instrument). Patch pipettes with resistances of 3-5 MΩ were filled with intracellular solution (pH 7.3) containing 128 mM K-Gluconate, 10 mM KCl, 10 mM HEPES, 0.1 mM EGTA, 2 mM MgCl2, 0.05 mM Na-GTP and 0.05 mM Mg-ATP. Recordings were made using a MultiClamp 700B amplifier (Axon Instrument), sampled using Digidata 1440A and analyzed offline with pClamp 10.3 software (Axon Instruments). Series resistance was monitored during the recording, and the values were generally <10 MΩ and were not compensated. The liquid junction potential was +12.5 mV, and was corrected after the experiment. Data were excluded if the series resistance increased dramatically during the experiment or without overshoot for action potential. Currents were amplified, filtered at 1 kHz, and digitized at 20 kHz. Current clamp was engaged to test neural firing frequency and resting membrane potential (RM) at the baseline and puff delivered recombinant Asprosin (500 ms at various concentrations indicated in the figures). For the asprosin antibody pre-incubation experiment, asprosin and anti-asprosin mAB or IgG were gently mixed at a 1:100 ratio, and then kept on ice for one hour before recording. After AgRP or POMC neuron response to asprosin alone was confirmed, the mixture of recombinant asprosin and anti-asprosin mAB or IgG was perfused to treat the AgRP or POMC neurons for 4 minutes. […]

[5] = bacterially-generated version (Romere et al., 2016); cited from earlier work
[6] = both experiments, 10 days, 4-hour fasted

B1: recombinant asprosin: 146 amino acid E. coli expressed fusion protein: 6 amino acid N-terminal His tag and 140 amino acid wild type asprosin (FBN1 2732-2871) (protein)
chain: HHHHHHSTNETDASNIEDQSETEANVSLASWDVEKTAIFAFNISHVSNKVRILELLPALTTLTNHNRYLIESGNEDGFFKINQKEGISYLHFTKKKPVAGTYSLQISSTPLYKKKELNQLEDKYDKDYLSGELGDNLKMKIQVLLH
blood glucose in insulin tolerance test ([1]; 60 minute mark, GFP mice had severe hypoglycemia): maintained their blood glucose levels
glucose and insulin tolerance tests ([1]; 10 days, FIGS. 5G-5J): consistent with a diabetogenic effect
fat cell volume, inguinal white fat microscopy ([1]; both experiments (FBN1 adenovirus; daily subcutaneous asprosin), 10 days): larger fat cell volume
plasma leptin and adiponectin [1, 6]: higher levels
plasma triglycerides and free fatty acids [1, 6]: lower levels
plasma glucose and insulin ([1]; fasted mice, 10 days, FIGS. 11A-11D): hyperglycemia and hyperinsulinemia
fat mass (MRI) ([1]; ten days of daily subcutaneous injection, vs GFP injection): significant increase
lean mass (MRI) ([1]; ten days of daily subcutaneous injection, same in GFP injected mice): slight but significant decrease
hepatocyte PKA activity, dose response [2]: increased in a dose responsive manner
competition of asprosin-biotin binding [3]: abolished the effect
miniature inhibitory post-synaptic current (mIPSC) in POMC neurons [4]: increased the frequency but not amplitude
POMC neuron firing frequency with AgRP neuron ablation ([4]; AgRP neuron ablated mice): little effect
asprosin-mediated hyperpolarization in POMC neurons with AgRP neuron ablation ([4]; AgRP neuron ablated mice): completely prevented
POMC neuron hyperpolarization with blockade of glutamatergic inputs ([4]; TTX + CNQX + AP5): did not affect
ability to hyperpolarize POMC neurons, GABAergic input ([4]; TTX + bicuculline): dependent on intact GABAergic input
proportion of POMC neurons inhibited ([4]; reduced resting membrane potential and firing frequency): ~85%
plasma half-life [5]: ~20 min
